From article PMC12768534 (Science immunology, 2025) come the findings set out here.

This experiment addresses mIL-21 (mouse, UniProt Q9ES17 18-146). The experiment can be described thus: BLI; mIL-21 and 21h10 incubated in PBS or murine serum for 1-240 minutes at 37°C, then binding to mIL-21R. The conditions noted are these: both partners purified.

B1: biotinylated mIL-21R (receptor)
chain: not shown
modifications: biotin (biotinylated)
notes: murine IL-21 receptor, biotinylated recombinant protein; Held on streptavidin biosensors by its biotin; limits and tags are the vendor's; also called murine IL-21 receptor; source: bought: Acro Biosystems Cat# ILR-M82E3
For B1, the binding result is recorded as “binds”.
